Assay results reported in patent publication CN115010810A (NANJING SANHOME PHARMACEUTICAL CO LTD, dated 2022).

B1: SHS006-HuP01-22 (antibody, V domains shown)
VH: QVQLVQSGAEVKKPGASVKVSCKASGYTFTWYHMSWVRQAPGQGLEYMGYINTRSGDTYYNEKFKGRVTMTTDTSTSTAYMELRSLRSDDTAVYYCARSGYGGSDYWGQGTLVTVSS
VL: DIVMTQSPDSLAVSLGERATINCKSSQNLLYSENKKNSLAWYQQKPGQPPKLLISWASTREFGVPDRFSGSGSGTDFTLTISSLQAEDVAVYYCEQYYDILPTFGGGTKVEIK
notes: also called SHS006-P01-22; 人源化抗PD-1抗体SHS006-HuP01-22
B2: HuC92-11 (antibody, V domains shown)
VH: QVQLVESGGGVVQPGRSLRLSCAASGFTFSNYAMSWVRQAPGKGLEWVAEISYSGTYSYHSDTVTGRFTISRDNSKNTLYLQMSSLRAEDTAVYYCTRRDYDNEMDYWGQGTLVTVSS
VL: DIQMTQSPSSLSASVGDRVTITCRTSQVITNYLNWYQQKPGKAPKLLIYYTSRLHSGVPSRFSGSGSGTDYTLTISSLQPEDFATYYCQQFGKRPPTFGGGTKVEIK
notes: also called SHS010-HuC92-11; 人源化抗CTLA-4抗体HuC92-11

What was measured:
[1] = target: T1, PD-1 on the surface of hPD-1-CHO-K1 cells (human, UniProt Q15116 25-288); test: FACS on hPD-1-CHO-K1 cells
T1 construct: also called 细胞表面PD-1; CHO-K1-PD-1
T1 sequence (Q15116 25-288 limits assumed): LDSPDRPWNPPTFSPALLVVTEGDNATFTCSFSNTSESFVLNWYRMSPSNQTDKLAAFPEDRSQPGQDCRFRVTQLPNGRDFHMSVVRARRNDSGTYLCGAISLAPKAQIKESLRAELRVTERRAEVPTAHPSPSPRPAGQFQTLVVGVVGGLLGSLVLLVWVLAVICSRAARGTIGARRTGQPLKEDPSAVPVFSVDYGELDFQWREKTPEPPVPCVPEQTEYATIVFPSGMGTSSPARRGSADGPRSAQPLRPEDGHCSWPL

[2] = target: T2, 食蟹猴PD-1-His (SB, Cat.No.90311-C08H) (cynomolgus monkey); test: ELISA, cynomolgus PD-1-His coated
T2 construct: Purchased protein; also called cynomolgus PD-1-His

[3] = target: 人PD-1-His蛋白 (自产; human PD-1 extracellular domain with His tag) (human, UniProt Q15116 25-170); test: ELISA, human PD-1-His coated
Chain of 人PD-1-His蛋白 (自产; human PD-1 extracellular domain with His tag) (Q15116 25-170 limits assumed): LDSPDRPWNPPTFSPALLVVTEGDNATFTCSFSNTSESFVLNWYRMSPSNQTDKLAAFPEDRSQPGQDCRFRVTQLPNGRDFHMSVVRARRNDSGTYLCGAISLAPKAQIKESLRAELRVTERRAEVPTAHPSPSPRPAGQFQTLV

[4] = target: T3, 人CTLA-4-His蛋白 (human CTLA-4 extracellular domain fused to His tag) (human, UniProt P16410 36-161); test: ELISA, human CTLA-4-His coated
T3 construct: also called hCTLA-4-His
T3 sequence: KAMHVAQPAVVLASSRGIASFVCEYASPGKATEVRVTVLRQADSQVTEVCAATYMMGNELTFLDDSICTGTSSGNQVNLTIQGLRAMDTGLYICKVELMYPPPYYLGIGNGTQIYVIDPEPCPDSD

Row | Binder | EC50 [1] | EC50 [2] | EC50 [3] | EC50 [4]
1 | B1 | 0.11 nM | 0.088 nM | 0.18 nM | 
2 | B2 |  |  |  | 0.01 nM
